Data: patent US20090203035A1 (University of California, published 2009)

B1: mOrange2 (other)
chain: MVSKGEENNMAIIKEFMRFKVRMEGSVNGHEFEIEGEGEGRPYEGFQTAKLKVTKGGPLPFAWDILSPHFTYGSKAYVKHPADIPDYFKLSFPEGFKWERVMNYEDGGVVTVTQDSSLQDGEFIYKVKLRGTNFPSDGPVMQKKTMGWEASSERMYPEDGALKGKIKMRLKLKDGGHYTSEVKTTYKAKKPVQLPGAYIVDIKLDITSHNEDYTIVEQYERAEGRHSTGGMDELYK
notes: Engineered monomeric orange fluorescent protein derived from mOrange (DsRed lineage); also called mOrange Q64H/F99Y/E160K/G196D; not shown: N-terminal 6xHis tag and linker encoded by the pBAD expression vector
B2: TagRFP-T (other)
chain: MVSKGEELIKENMHMKLYMEGTVNNHHFKCTSEGEGKPYEGTQTMRIKVVEGGPLPFAFDILATSFMYGSRTFINHTQGIPDFFKQSFPEGFTWERVTTYEDGGVLTATQDTSLQDGCLIYNVKIRGVNFPSNGPVMQKKTLGWEANTEMLYPADGGLEGRTDMALKLVGGGHLICNFKTTYRSKKPAKNLKMPGVYYVDHRLERIKEADKETYVEQHEVAVARYCDLPSKLGHKLNGMDELYK
notes: Engineered fluorescent protein, the S158T variant of TagRFP (eqFP578 lineage); also called TagRFP S158T; not shown: N-terminal 6xHis tag and linker encoded by the pBAD expression vector

Target: the molecule itself
Assay: gel filtration (self-association / dimerization check)

Protein	binding result
B1	no binding
B2	no binding
